Measurements reported in patent US10487337B2, “Methods for monocot plant improvement” (Agresearch Limited, priority 2014, dated 2019).

B1: Selaginella moellendorffii PPD: PEAPOD protein of Selaginella moellendorffii, SEQ ID NO: 110/116 (protein, listed as Selaginella moellendorffii)
chain: MSSMVDFLGIEEKVSTSVSAERLKKLEELTDEDVMQLTREDCRRYLKEKGMRRPSWNKAQAVQQLLSLKSLCDPSPASSGAAKRSPSPPLDEAPAKKPMAMTSIDLKAAAAVDAANLTMFYDGAVSVFDDVSPDKASLFPLAYAIMLLAGNVKSWPSINVAANTNKVVISSYELPQARKASLQRFLQRRREKTAKEAASKGNSNKSPCHGESSGKHASDATDPATSPLLTEVSSGSGGGSAKGELRGHPFEGKPIPNPLLGLDSTRTGHHHHHHGS
B2: Musa acuminate PPD: PEAPOD protein of Musa acuminate, SEQ ID NO: 108/114 (protein, listed as Musa acuminata)
chain: MNPGETTPPSPLDKPLAELTEEDIAQLTREDCRRFLKAKGMRRPSWNKSQAIQQVISLKALLEGRPGCDDCPAGGGILQKLLTSSPSEPLSPPQDSPPPAPKEGGSGSQPLAKEPSPYRRRDPIPPPYSAGNPTCQTPIAGADLPHPPEKRCPSPRLTAEVPVGQMTIFYDGMVNVYDGVSADQARSIMELAASPVCFDDPTGAFSPARPPAFRFPPGLPRPAPVPTAPSFVGTFPISPAGKRCYSYCSFRSSVSLLTTTEGPTSRKASLQRYLEKRKDRYGHLPTESILLVSGSGGGSAKGELRGHPFEGKPIPNPLLGLDSTRTGHHHHHHGS

Columns and labels:
[1] = biological target: T1, BZR1 (Arabidopsis thaliana, UniProt Q8S307); assay: BiFC interaction with BZR1 in Nicotiana benthamiana leaves; assay type: cell-based; conditions: fully expanded leaves, co-expressed with cYFP-BZR1
T1 construct: expressed in transfected cells; host or cells: Nicotiana benthamiana leaves (Agrobacterium infiltration)
T1 sequence (Q8S307 1-336): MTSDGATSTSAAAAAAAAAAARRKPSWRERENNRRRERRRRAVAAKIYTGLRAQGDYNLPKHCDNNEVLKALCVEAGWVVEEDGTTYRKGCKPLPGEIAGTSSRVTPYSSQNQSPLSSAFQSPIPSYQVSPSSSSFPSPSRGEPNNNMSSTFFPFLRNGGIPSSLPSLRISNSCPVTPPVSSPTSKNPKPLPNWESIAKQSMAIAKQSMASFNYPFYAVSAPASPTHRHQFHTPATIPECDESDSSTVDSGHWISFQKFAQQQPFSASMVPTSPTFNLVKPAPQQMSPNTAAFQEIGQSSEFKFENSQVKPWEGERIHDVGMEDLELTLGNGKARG
From the text: The binary BiFC-Gateway YFP vectors pDEST-VYNE(R)^GW (Venus aa 1-173) and pDEST-VYCE(R)^GW (Venus aa 156-239) with N-terminal fusions, were used to construct the following vectors; pDESTnYFP-BZR1, pDESTnYFP-NINJA, pDESTnYFP-PPD1, pDESTcYFP-BZR1, pDESTcYFP-PPD1, pDESTcYFP-PPD1Δppd, pDESTcYFP-PPD1Δtify and pDESTcYFP-PPD1Δjas*. For transient in planta expression of proteins interacting with PPD1 or BZR, NINJA and TPL were Gateway® sub-cloned into pRSh1, to construct pRSh1-NINJA and pRSh1-TPL. Plasmids for co-immunoprecipitation: A synthesised DNA construct encoding PPD1 with a 3×c-myc C-terminal fusion was sub-cloned into pRSh1 to produce pRSh1-PPD1-3×c-myc, while the NINJA cDNA sequence was sub-cloned into pB7FWG2,0 (Karimi et al 2002, Trends Plant Sci. 7, 193-195) to construct pB7FWG2-NINJA-GFP. When expressed these constructs produced proteins listed in sequences 60, 62, 70 71 72 73 74 75 76 77 78 79: including TOPLESS (TPL), NINJA, Bimolecular Fluorescence (BiFC) nYFP, BiFC cYFP, BiFC nYFP-NINJA, BiFC nYFP-BZR1, BiFC cYFP-PPD1, BiFC cYFP-NINJA, BiFC cYFP-BZR1, BiFC cYFP-PPD1-ppd, BiFC cYFP-PPD1-tify, BiFC cYFP-PPD1-jas*.
Transient BiFC experiments were performed using combinations of pDESTnYFP and pDESTcYFP plasmids, with or without plasmids for the expression of NINJA (pRSh1-NINJA) or TPL (pRSh1-TPL) and Agrobacterium-infiltration of Nicotiana benthamiana leaves. For infiltration Agrobacterium tumefaciens GV3101 strains containing the binary vectors were re-suspended from plates and prepared for transformation as described for the LUC assay. All YFP and expression strains were mixed in ratios of 1:1 (vol/vol) with the addition of strain P19 at 1/10th volume. Five leaf discs were sampled from each infiltrated leaf after 40 h. Two hours prior to sampling for microscopic fluorescence observations leaves were infiltrated with a 1 μg/ml DAPI solution to stain nuclei. YFP fluorescence and DAPI staining was detected using an Olympus Fluoview FV10i confocal laser scanning microscope. Each experiment was repeated twice.

[2] = system: ryegrass plants; assay: Root biomass analysis of grass transformants; assay type: in vivo; conditions: constitutive promoter, root growth beyond the grow bag, approximately 6 weeks
Experimental: (§1) An equal number (typically 4-10) of tillers were taken from WT and ryegrass plants transformed with Arabidopsis PPD under one of three root promoters. Tillers were planted into plastic grow bags containing potting mix and pruned to be of equal height. […] The increase in root biomass was quantified removing the attached above ground portion (leaves and shoots) and drying the roots at 65° C. for 48 hr then weighing the dry weights (Tables 3 and 4)
as §1, with “a constitutive promoter.” for “one of three root promoters.”, “(Table 5).” for “(Tables 3 and 4)”

[3] = system: ryegrass plants; assay: Leaf biomass analysis of grass transformants; assay type: in vivo; conditions: constitutive promoter, observed leaf growth, approximately 6 weeks
Experimental: as §1, with “two green tissue” for “three root”, “leaf/shoot” for “root”, “can be” for “was”, “them” for “the roots”, “weights.” for “weights (Tables 3 and 4)”
as §1, with “a constitutive promoter.” for “one of three root promoters.”, “leaf/shoot” for “root”, “them” for “the roots”, “(Table 2).” for “(Tables 3 and 4)”

[4] = system: Arabidopsis Δppd mutant; assay: Complementation of the Arabidopsis Δppd mutant leaf phenotype; assay type: in vivo; conditions: CaMV35s promoter, Arabidopsis thaliana ecotype Landsberg erecta, FIG. 13
From the text: The functionality of any PEAPOD sequence can be confirmed by complementation of the Arabidopsis Δppd mutant leaf phenotype. Complementation of the Arabidopsis Δppd mutant leaf phenotype was first used to identify the Arabidopsis PPD gene (White 2006). This was seen by a restoration of the wild type flattened leaf phenotype and normal rosette shape as opposed to the domed leaf and the twisting of the rosette to a “propeller” phenotype.
Arabidopsis thaliana (L.) Heynh ecotype Ler can be used as wild-type (WT). The Δppd loss of function deletion mutant (with PPD1 and PPD2 deleted) is as previously described in White 2006, PNAS 103, 13238-13243.
Plants are grown in a temperature-controlled glasshouse at a continuous 21° C. or in a controlled environment cabinet at 23° C. in 16-h light_8-h dark cycles.
Constructs above can be transformed into Arabidopsis by the floral dip infiltration method (Clough and Bent, 1998, Plant J 16, 735-43). The Δppd line is transformed to express the PPD polypeptides by standard techniques. Transgenic plants are confirmed by standard PCR analysis techniques with a combination of transgene-specific and T-DNA primers.
Complementation of the Δppd line to produce a wild-type leaf and rosette phenotype in T1 seedlings (the off-spring of the infiltrated plant) confirms PEAPOD functionality of the introduced gene, which can be shown in photographs.

Row | Molecule | interaction with BZR1 [1] | root biomass/growth/length/branching compared to WT plants [2] | leaf biomass/growth/length/branching compared to WT plants [3] | PEAPOD functionality by complementation of the Δppd deletion mutant [4]
1 | nYFP-PPD1: BiFC fusion of PPD1 with the N-terminal Venus YFP fragment | no interaction was observed |  |  | 
2 | B1 |  | increase in root biomass/growth/length/branching | increase in leaf biomass/growth/length/branching | functionally equivalent
3 | B2 |  | increase in root biomass/growth/length/branching | increase in leaf biomass/growth/length/branching | functionally equivalent
